One may read the Kd as the concentration at which binding is half-saturated. As a reminder, the stoichiometry N is the number of molecules, sites or subunits per partner or assembly.

The series “crystal structure” concerns the molecule itself. The series is described as follows: crystal structure.
Series [1] deals with T1, GI.1 P domain (Norwalk virus) (Norwalk virus (human norovirus GI.1), UniProt Q83884).
T1 construct: also called GI.1 capsid-protruding (P) domain; GI P domain
The series is described as follows: ITC; Nano-7 (150 μM) injected in 0.5 μl aliquots into GI.1 P domain (15 μM), PBS, 35°C, one-site binding model. Conditions: both partners purified.

For series [2], the target named is T1, GI.1 P domain (Norwalk virus). The experiment in a line: ELISA; direct ELISA; P domain or VLPs coated on MaxiSorp plates, serially diluted Nanobodies (1:1 in PBS, starting at 100 μg/ml) for 1 h at 37°C, detected with HRP-conjugated anti-polyhistidine antibody; cutoff OD490 0.15. Conditions: both partners purified. On the technique in general: ELISA stands for enzyme-linked immunosorbent assay.

Series [3] shares this target. The experiment in a line: ITC; Nano-62 (150 μM) injected in 2 μl aliquots into GI.1 P domain (15 μM), PBS, 30°C, one-site binding model. Conditions: both partners purified. (ITC needs no label: the signal is the heat of the interaction.)
The target is the same in series [4]. The series is described as follows: ITC; Nano-94 (150 μM) injected in 2 μl aliquots into GI.1 P domain (15 μM), PBS, 25°C, one-site binding model. Conditions: both partners purified.

B1: GI.1 P domain (Norwalk virus) (domain or fragment)
chain: EQKTRPFTLPNLPLSSLSNSRAPLPISSMGISPDNVQSVQFQNGRCTLDGRLVGTTPVSLSHVAKIRGTSNGTVINLTELDGTPFHPFEGPAPIGFPDLGGCDWHINMTQFGHSSQTQYDVDTTPDTFVPHLGSIQANGIGSGNYVGVLSWISPPSHPSGSQVDLWKIPNYGSSITEATHLAPSVYPPGFGEVLVFFMSKMPGPGAYNLPCLLPQEYISHLASEQAPTVGEAALLHYVDPDTGRNLGEFKAYPDGFLTCVPNGASSGPQQLPINGVFVFVSWVSRFYQLKPVGT
notes: also called GI.1 capsid-protruding (P) domain; GI P domain
Turning to B1, the binding result in the series “crystal structure” is “binds”.

B2: Nano-7 (VHH)
VHH: QVQLQESGGGLVQAGGSLRLSCAVSGRTFSNYYSGWFRQAPGKEREFLASIRWSDSTTNYADSVKGRFTISRDTAKNTVYLQMNSLKLEDTAVYHCAARRLATYDYWGQGTQVTVSS
notes: also called Nanobody 7
Take B2: in series [1], the affinity, expressed as Kd, was 0.163 nM and the “stoichiometry N” value was roughly 1. In series [2], the “detection level (ELISA, cutoff OD490 0.15)” value (“detection level” below) turned out to be 0.2 µg/mL.

B3: Nano-62 (VHH)
VHH: QVQLQESGGGLVMTGGSLRLSCAVSGRTIDVSVMAWFRQAPGKEREFVSGMRWSGMTTYSADSVKDRFTISRDKTKNTVYLQMNSLKPEDTAVYYCAARSRFIVGVPQARDLYDYWGQGTQVTVSS
notes: also called Nanobody 62
As for B3, in series [3], the Kd was determined as 4.58 nM and the “stoichiometry N” value is roughly 1. The “detection level” value in series [2] is 0.1 µg/mL.

B4: Nano-94 (VHH)
VHH: QVQLQESGGGLVQAGGSLRLSCAASGRMFSINSMGWYRQAPGKERELVATISEAGTTTYADSVRGRFTIARDNAKNTVYLQMNSLNPEDTAVYYCNAYIQLDSTIWFRAYWGQGTQVTVSS
notes: also called Nanobody 94
B4: in series [4], binding was characterised by a dissociation constant (Kd) of 43.4 nM and the “stoichiometry N” value is roughly 1. Besides, the “detection level” value in series [2] was 0.1 µg/mL.

For the origin of these results see PMC6401464 (Journal of Virology, 2019).
